The record followed here is the supplement of paper PMC5998384.

Data set [1] deals with HeLa Kyoto. Put plainly: solubility in G1/S (NP-40 vs SDS abundance) (log2 ratio); higher = more soluble. The settings on record: cell cycle stage: G1/S.
For data set [2], the system named is HeLa Kyoto. Put plainly: solubility change mitosis vs G1/S (difference of NP-40 vs SDS log2 ratios) (log2 ratio difference); higher = more soluble in mitosis.
Data set [3] relates to HeLa Kyoto. Briefly: thermal stability score vs G1/S (z-score of summed log2 fold changes over temperatures); higher = more thermally stable than in G1/S.
The mark [4] stands for this setting: cell cycle stage: early G1 (4.5 h after nocodazole release).
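Throughout, for solubility change mitosis vs G1/S (difference of NP-40 vs SDS log2 ratios): synchronized HeLa Kyoto cells (double thymidine block for G1/S, nocodazole release for mitosis), protein amounts in NP-40 versus SDS lysates quantified by mass spectrometry, three biological replicates.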
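Throughout, for solubility in G1/S (NP-40 vs SDS abundance): HeLa Kyoto cells arrested at G1/S by double thymidine block, proteins quantified by TMT10plex mass spectrometry in mild NP-40 versus SDS extracts, three biological replicates.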
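Throughout, for thermal stability score vs G1/S (z-score of summed log2 fold changes over temperatures): synchronized HeLa Kyoto cells, proteins quantified by TMT10plex mass spectrometry, three biological replicates, mitosis taken 0.5 h after nocodazole release, G1/S directly after double thymidine block.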

Consider “MSAKDERAREILRGFKLNWMNLRDAETGKILWQGTEDLSVPGVEHEARVPKKILKCKAVSRELNFSSTEQMEKFRLEQKVYFKGQCLEEWFFEFGFVIPNSTNTWQSLIEAAPESQMMPASVLTGNVIIETKFFDDDLLVSTSRVRLFYV [PDE6D]”, for which the “solubility in G1/S (log2)” value in the data set with HeLa Kyoto [1] was found to be 0.207. Besides, the “solubility change mitosis (log2)” value with HeLa Kyoto [2] is -0.258. The thermal stability score with HeLa Kyoto [3] (setting [4]) is 0.113; with HeLa Kyoto [3] (cell cycle stage: mitosis) it was -0.864.

With SNRPF, the “solubility in G1/S (log2)” value in the data set on HeLa Kyoto [1] was -1.06. Further, the “solubility change mitosis (log2)” value in the data set with HeLa Kyoto [2] was -0.0169. In addition, the thermal stability score in the data set on HeLa Kyoto [3] (setting [4]) was -0.0433; with HeLa Kyoto [3] (cell cycle stage: mitosis), -0.451.

With “MAAAAGDGGGEGGAGLGSAAGLGPGPGLRGQGPSAEAHEGAPDPMPAALHPEEVAARLQRMQRELSNRRKILVKNLPQDSNCQEVHDLLKDYDLKYCYVDRNKRTAFVTLLNGEQAQNAIQMFHQYSFRGKDLIVQLQPTDALLCITNVPISFTSEEFEELVRAYGNIERCFLVYSEVTGHSKGYGFVEYMKKDFAAKARLELLGRQLGASALFAQWMDVNLLASELIHSKCLCIDKLPSDYRDSEELLQIFSSVHKPVFCQLAQDEGSYVGGFAVVEYSTAEQAEEVQQAADGMTIKGSKVQVSFCAPGAPGRSTLAALIAAQRVMHSNQKGLLPEPNPVQIMKSLNNPAMLQVLLQPQLCGRAVKPAVLGTPHSLPHLMNPSISPAFLHLNKAHQSSVMGNTSNLFLQNLSHIPLAQQQLMKFENIHTNNKPGLLGEPPAVVLQTALGIGSVLPLKKELGHHHGEAHKTSSLIPTQTTITAGMGMLPFFPNQHIAGQAGPGHSNTQEKQPATVGMAEGNFSGSQPYLQSFPNLAAGSLLVGHHKQQQSQPKGTEISSGAASKNQTSLLGEPPKEIRLSKNPYLNLASVLPSVCLSSPASKTTLHKTGIASSILDAISQGSESQHALEKCIAYSPPFGDYAQVSSLRNEKRGSSYLISAPEGGSVECVDQHSQGTGAYYMETYLKKKRVY [RAVER2]”, the “solubility in G1/S (log2)” value in the data set with HeLa Kyoto [1] was 0.172. For the same substance, the “solubility change mitosis (log2)” value in the data set with HeLa Kyoto [2] is -0.203. Further, the thermal stability score in the data set on HeLa Kyoto [3] (setting [4]) amounted to 1.56; in the data set with HeLa Kyoto [3] (cell cycle stage: mitosis), 1.81.

Consider “MKHINLSFAACGFLGIYHLGAASALCRHGKKLVKDVKAFAGASAGSLVASVLLTAPEKIEECNQFTYKFAEEIRRQSFGAVTPGYDFMARLRSGMESILPPSAHELAQNRLHVSITNAKTRENHLVSTFSSREDLIKVLLASSFVPIYAGLKLVEYKGQKWVDGGLTNALPILPVGRTVTISPFSGRLDISPQDKGQLDLYVNIAKQDIMLSLANLVRLNQALFPPSKRKMESLYQCGFDDTVKFLLKENWFE [PNPLA4]”, for which the “solubility in G1/S (log2)” value in the data set with HeLa Kyoto [1] amounted to 0.107. For the same substance, the “solubility change mitosis (log2)” value in the data set with HeLa Kyoto [2] was -0.145. For the same substance, the values for the thermal stability score with HeLa Kyoto [3] (setting [4]) and in the data set on HeLa Kyoto [3] (cell cycle stage: mitosis) were 0.304 and 1.11, respectively.

In the case of “MSQVMSSPLLAGGHAVSLAPCDEPRRTLHPAPSPSLPPQCSYYTTEGWGAQALMAPVPCMGPPGRLQQAPQVEAKATCFLPSPGEKALGTPEDLDSYIDFSLESLNQMILELDPTFQLLPPGTGGSQAELAQSTMSMRKKEESEALDIKYIEVTSARSRCHDGPQHCSSPSVTPPFGSLRSGGLLLSRDVPRETRSSSESLIFSGNQGRGHQRPLPPSEGLSPRPPNSPSISIPCMGSKASSPHGLGSPLVASPRLEKRLGGLAPQRGSRISVLSASPVSDVSYMFGSSQSLLHSSNSSHQSSSRSLESPANSSSSLHSLGSVSLCTRPSDFQAPRNPTLTMGQPRTPHSPPLAKEHASSCPPSITNSMVDIPIVLINGCPEPGSSPPQRTPGHQNSVQPGAASPSNPCPATRSNSQTLSDAPFTTCPEGPARDMQPTMKFVMDTSKYWFKPNITREQAIELLRKEEPGAFVIRDSSSYRGSFGLALKVQEVPASAQSRPGEDSNDLIRHFLIESSAKGVHLKGADEEPYFGSLSAFVCQHSIMALALPCKLTIPQRELGGADGASDSTDSPASCQKKSAGCHTLYLSSVSVETLTGALAVQKAISTTFERDILPTPTVVHFKVTEQGITLTDVQRKVFFRRHYPLTTLRFCGMDPEQRKWQKYCKPSWIFGFVAKSQTEPQENVCHLFAEYDMVQPASQVIGLVTALLQDAERM [TNS4]”, in the data set on HeLa Kyoto [1], the “solubility in G1/S (log2)” value turned out to be 0.00637. Besides, the “solubility change mitosis (log2)” value with HeLa Kyoto [2] is -0.0286. The thermal stability score with HeLa Kyoto [3] (setting [4]) was -0.0391; with HeLa Kyoto [3] (cell cycle stage: mitosis), 2.56.

“MSGDTCLCPASGAKPKLSGFKGGGLGNKYVQLNVGGSLYYTTVRALTRHDTMLKAMFSGRMEVLTDKEGWILIDRCGKHFGTILNYLRDDTITLPQNRQEIKELMAEAKYYLIQGLVNMCQSALQDKKDSYQPVCNIPIITSLKEEERLIESSTKPVVKLLYNRSNNKYSYTSNSDDHLLKNIELFDKLSLRFNGRVLFIKDVIGDEICCWSFYGQGRKLAEVCCTSIVYATEKKQTKVEFPEARIYEETLNVLLYETPRVPDNSLLEATSRSRSQASPSEDEETFELRDRVRRIHVKRYSTYDDRQLGHQSTHRD [TNFAIP1]”: the “solubility in G1/S (log2)” value in the data set on HeLa Kyoto [1] is -1.22. The “solubility change mitosis (log2)” value in the data set on HeLa Kyoto [2] came out at 0.627. Further, the thermal stability score in the data set on HeLa Kyoto [3] (setting [4]) is 1.18e-17; in the data set with HeLa Kyoto [3] (cell cycle stage: mitosis) it was -0.17.

On to “MSSCVSSQPSSNRAAPQDELGGRGSSSSESQKPCEALRGLSSLSIHLGMESFIVVTECEPGCAVDLGLARDRPLEADGQEVPLDTSGSQARPHLSGRKLSLQERSQGGLAAGGSLDMNGRCICPSLPYSPVSSPQSSPRLPRRPTVESHHVSITGMQDCVQLNQYTLKDEIGKGSYGVVKLAYNENDNTYYAMKVLSKKKLIRQAGFPRRPPPRGTRPAPGGCIQPRGPIEQVYQEIAILKKLDHPNVVKLVEVLDDPNEDHLYMVFELVNQGPVMEVPTLKPLSEDQARFYFQDLIKGIEYLHYQKIIHRDIKPSNLLVGEDGHIKIADFGVSNEFKGSDALLSNTVGTPAFMAPESLSETRKIFSGKALDVWAMGVTLYCFVFGQCPFMDERIMCLHSKIKSQALEFPDQPDIAEDLKDLITRMLDKNPESRIVVPEIKLHPWVTRHGAEPLPSEDENCTLVEVTEEEVENSVKHIPSLATVILVKTMIRKRSFGNPFEGSRREERSLSAPGNLLTKKPTRECESLSELKEARQRRQPPGHRPAPRGGGGSALVRGSPCVESCWAPAPGSPARMHPLRPEEAMEPE [CAMKK2]”, for which the “solubility in G1/S (log2)” value with HeLa Kyoto [1] came to 0.289. The “solubility change mitosis (log2)” value with HeLa Kyoto [2] was -0.0691. Also, the thermal stability score was -0.348 in the data set on HeLa Kyoto [3] (setting [4]) and -0.0506 in the data set with HeLa Kyoto [3] (cell cycle stage: mitosis).
